Source: US20190282704A1
Each block holds one binder with its values, some of them ahead of it.

Key:
[1] = target: wildtype feline IL-31 (Feline_IL31_wildtype) (feline); assay: cell-based or functional assay
[2] = target: canine IL-31 (Canine_IL31) (canine); assay: SPR (Biacore), immobilised IL-31, 1:1 fit
[3] = target: wildtype feline IL-31 (Feline_IL31_wildtype) (feline); assay: SPR (Biacore), immobilised IL-31, 1:1 fit
[4] = target: wildtype feline IL-31 (Feline_IL31_wildtype) (feline)
[5] = target: canine IL-31 (Canine_IL31) (canine); assay: cell-based or functional assay
[6] = target: feline IL-31 15H05 mutant (Feline_IL31_15H05 mutant) (feline); assay: indirect ELISA, coated IL-31
[7] = target: wildtype feline IL-31 (Feline_IL31_wildtype) (feline); assay: indirect ELISA, coated IL-31
[8] = target: canine IL-31 (Canine_IL31) (canine)

Chain of wildtype feline IL-31 (Feline_IL31_wildtype) (feline) (chain, as listed by the source limits assumed, form in doubt): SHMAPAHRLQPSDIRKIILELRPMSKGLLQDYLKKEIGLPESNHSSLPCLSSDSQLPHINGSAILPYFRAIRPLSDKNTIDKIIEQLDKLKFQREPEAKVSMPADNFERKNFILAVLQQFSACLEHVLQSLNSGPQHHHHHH
Chain of feline IL-31 15H05 mutant (Feline_IL31_15H05 mutant) (feline) (chain, as listed by the source mutant limits assumed, form in doubt): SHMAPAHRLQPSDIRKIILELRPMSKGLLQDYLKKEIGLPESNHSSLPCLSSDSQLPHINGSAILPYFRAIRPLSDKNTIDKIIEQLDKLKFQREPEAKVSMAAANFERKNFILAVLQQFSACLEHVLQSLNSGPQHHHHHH
Chain of canine IL-31 (Canine_IL31) (canine) (chain, as listed by the source limits assumed, form in doubt): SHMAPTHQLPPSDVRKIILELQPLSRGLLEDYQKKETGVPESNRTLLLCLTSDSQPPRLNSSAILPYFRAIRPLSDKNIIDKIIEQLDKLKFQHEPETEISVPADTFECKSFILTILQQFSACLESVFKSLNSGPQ

B1: Feline 11E12 1.1 (antibody, V domains shown)
VH: QVLLVQSGAEVKKPGASVKIFCKASGYSFTYYDINWLRQAPEQGLEWMGWIFPGDGGTKYNETFKGRLTLTADTSTNTVYMELSSLRSADTAMYYCARGGTSVIRDAMDYWGQGALVTVSS
VL: EIQMTQSPSSLSASPGDRVTITCRASESVDNYGISFMHWYQQKPGKVPKLLIYRASNLESGVPSRFSGSGSGTDFTLTISSLEPEDAATYYCQQSNKDPLTFGQGT
potency against feline IL-31 in the feline FCWF assay, against the mouse version [1]: 2 fold
Kd [2]: 0.764 nM
koff [2]: 0.000141 s⁻¹
kon [2]: 185000 M⁻¹ s⁻¹
Kd [3]: 22.2 nM
koff [3]: 0.000444 s⁻¹
kon [3]: 20000 M⁻¹ s⁻¹

B3: ZIL94 (antibody, V domains shown)
VH: EVQLVDSGGDLVKPGGSLRLSCVASGFTFSTYFMSWVRQAPGRGLQWVALISSDGSGTYYADAVKGRFTISRDNAKNTLYLQMNSLRAEDTAMYYCAIFWRAFNDWGQGTLVTVSS
VL: QTVVIQEPSLSVSPGGTVTLTCGLNSGSVSTSNYPGWYQQTRGRTPRTIIYDTGSRPSGVPNRFSGSISGNKAALTITGAQPEDEADYYCSLYTDSDILVFGGGTHLTVLR
Binding (ELISA OD) [6]: 1.3 OD
Binding (ELISA OD) [7]: 1.67 OD

B6: 15H05 mouse: canine chimera (antibody)
heavy: QVQLQQSAAELARPGASVKMSCKTSGYTFTSYTIHWIKQRPGQGLEWIGNINPTSGYTENNQRFKDKTTLTVDRSSNTAYLQLHSLTSEDSAVYFCARWGFKYDGEWSFDVWGAGTTVTVSSASTTAPSVFPLAPSCGSTSGSTVALACLVSGYFPEPVTVSWNSGSLTSGVHTFPSVLQSSGLYSLSSMVTVPSSRWPSETFTCNVAHPASKTKVDKPVPKRENGRVPRPPDCPKCPAPEMLGGPSVFIFPPKPKDTLLIARTPEVTCVVVDLDPEDPEVQISWFVDGKQMQTAKTQPREEQFNGTYRVVSVLPIGHQDWLKGKQFTCKVNNKALPSPIERTISKARGQAHQPSVYVLPPSREELSKNTVSLTCLIKDFFPPDIDVEWQSNGQQEPESKYRTTPPQLDEDGSYFLYSKLSVDKSRWQRGDTFICAVMHEALHNHYTQESLSHSPGK
light: DIQMNQSPSSLSASLGDTITVTCRASQGISIWLSWYQQKPGNIPKVLINKASNLHIGVPPRFSGSGSGTHFTLTITSLQPEDIATYYCLQSQTYPLTFGGGTKLEINRNDAQPAVYLFQPSPDQLHTGSASVVCLLNSFYPKDINVKWKVDGVIQDTGIQESVTEQDKDSTYSLSSTLTMSSTEYLSHELYSCEITHKSLPSTLIKSFQRSEC
IC50, inhibition of canine IL-31-induced STAT3 phosphorylation, canine DH82 cells [8]: 12.7 µg/mL
IC50, inhibition of feline IL-31-induced STAT3 phosphorylation, feline FCWF4 cells [4]: 3.11 µg/mL
IC50 against canine IL-31 (pSTAT3; cell type not clear) [5]: 12.5 µg/ml
IC50, feline IL-31 signaling on the canine DH82 cell line (pSTAT3) [1]: 0.71 µg/ml

B8: ZIL154 (antibody, V domains shown)
VH: EVHLVESGGDLVKPWGSLRLSCVASGFTFSDRGMSWVRQSPGKGLQWVAYIRYDGSRTDYADAVEGRFTISRDNAKNTLYLQMNSLRAEDTAVYYCARWDGSSFDYWGQGTLVTVSS
VL: DIVVTQTPLSLSVSPGETASFSCKASQSLLHSDGNTYLDWFRQKPGQSPQRLIYKVSNRDPGVPDRFSGSGSGTDFTLRISGVEADDAGLYYCMQAIHFPLTFGAGTKVELKR
Binding (ELISA OD) [6]: 1.38 OD
Binding (ELISA OD) [7]: 1.62 OD

The remaining lines, values ahead:

IC50, inhibition of feline IL-31-induced STAT3 phosphorylation, canine DH82 cells [4]: 5.59 µg/mL
IC50, inhibition of feline IL-31-induced STAT3 phosphorylation, feline FCWF4 cells [4]: 3.25 µg/mL
IC50 against canine IL-31 (pSTAT3; cell type not clear) [5]: 28.6 µg/ml
IC50 against feline IL-31 induced pSTAT3 signaling in feline FCWF4 cells, against mouse: feline 11E12 chimera [1]: 2 fold
Kd [2]: 0.0129 nM
koff [2]: 1.62e-07 s⁻¹
kon [2]: 12600 M⁻¹ s⁻¹
B2: mouse: feline 15H05 chimera (antibody)
heavy: QVQLQQSAAELARPGASVKMSCKTSGYTFTSYTIHWIKQRPGQGLEWIGNINPTSGYTENNQRFKDKTTLTVDRSSNTAYLQLHSLTSEDSAVYFCARWGFKYDGEWSFDVWGAGTTVTVSSASTTAPSVFPLAPSCGTTSGATVALACLVLGYFPEPVTVSWNSGALTSGVHTFPAVLQASGLYSLSSMVTVPSSRWLSDTFTCNVAHPPSNTKVDKTVRKTDHPPGPKPCDCPKCPPPEAAGAPSIFIFPPKPKDTLSISRTPEVTCLVVDLGPDDSDVQITWFVDNTQVYTAKTSPREEQFNSTYRVVSVLPILHQDWLKGKEFKCKVNSKSLPSPIERTISKAKGQPHEPQVYVLPPAQEELSRNKVSVTCLIKSFHPPDIAVEWEITGQPEPENNYRTTPPQLDSDGTYFVYSKLSVDRSHWQRGNTYTCSVSHEALHSHHTQKSLTQSPGK
light: DIQMNQSPSSLSASLGDTITVTCRASQGISIWLSWYQQKPGNIPKVLINKASNLHIGVPPRFSGSGSGTHFTLTITSLQPEDIATYYCLQSQTYPLTFGGGTKLEINRSDAQPSVFLFQPSLDELHTGSASIVCILNDFYPKEVNVKWKVDGVVQNKGIQESTTEQNSKDSTYSLSSTLTMSSTEYQSHEKFSCEVTHKSLASTLVKSFQRSECQRE

Binding (ELISA OD) [6]: 1.31 OD
Binding (ELISA OD) [7]: 1.6 OD
B4: ZIL159 (antibody, V domains shown)
VH: EVQLVESGGDLVKPAGSLRLSCVASGFTFSSYVMTWVRQAPGKGLQWVAGINSEGSRTAYADAVKGRFTISRDNAKNTLYLQIDSLRAEDTAIYYCATGDIVATGTSYWGQGTLVTVSS
VL: SNVLTQPPSVSVSLGQTATISCSGETLNRFYTQWFQQKAGQAPVLVIYKDTERPSGIPDRFSGSSSGNIHTLTISGARAEDEAAYYCKSAVSIDVGVFGGGTHLTVFR

IC50, inhibition of canine IL-31-induced STAT3 phosphorylation, canine DH82 cells [8]: 11.2 µg/mL
IC50, inhibition of canine IL-31-induced STAT3 phosphorylation, feline FCWF4 cells [8]: 25.7 µg/mL
IC50, inhibition of feline IL-31-induced STAT3 phosphorylation, canine DH82 cells [4]: 2.7 µg/mL
IC50, inhibition of feline IL-31-induced STAT3 phosphorylation, feline FCWF4 cells [4]: 4.26 µg/mL
Binding (ELISA OD) [6]: 0.05 OD
Binding (ELISA OD) [7]: 1.94 OD
Kd [2]: 0.00487 nM
koff [2]: 6.56e-07 s⁻¹
kon [2]: 135000 M⁻¹ s⁻¹
Kd [3]: 0.348 nM
koff [3]: 1.69e-05 s⁻¹
kon [3]: 48400 M⁻¹ s⁻¹
B5: mouse anti IL-31 antibody 15H05 (antibody, V domains shown)
VH: QVQLQQSAAELARPGASVKMSCKTSGYTFTSYTIHWIKQRPGQGLEWIGNINPTSGYTENNQRFKDKTTLTVDRSSNTAYLQLHSLTSEDSAVYFCARWGFKYDGEWSFDVWGAGTTVTVSS
VL: DIQMNQSPSSLSASLGDTITVTCRASQGISIWLSWYQQKPGNIPKVLINKASNLHIGVPPRFSGSGSGTHFTLTITSLQPEDIATYYCLQSQTYPLTFGGGTKLEIN

IC50, inhibition of feline IL-31-induced STAT3 phosphorylation, canine DH82 cells [4]: 2.47 µg/mL
IC50, inhibition of feline IL-31-induced STAT3 phosphorylation, feline FCWF4 cells [4]: 2.01 µg/mL
Binding (ELISA OD) [6]: 1.33 OD
Binding (ELISA OD) [7]: 1.15 OD
Kd [2]: 0.000763 nM
koff [2]: 4.8e-07 s⁻¹
kon [2]: 629000 M⁻¹ s⁻¹
Kd [3]: 0.738 nM
koff [3]: 0.000123 s⁻¹
kon [3]: 167000 M⁻¹ s⁻¹
B7: mouse anti IL-31 antibody 11E12 (antibody, V domains shown)
VH: QVQLQQSGAELVKPGASVKLSCKASGYTFKYYDINWVRQRPEQGLEWIGWIFPGDGGTKYNETFKGKATLTTDKSSSTAYMQLSRLTSEDSAVYFCARGGTSVIRDAMDYWGQGTSVTVSS
VL: DIVLTQSPASLAVSLGQRATISCRASESVDNYGISFMHWYQQKPGQPPKLLIYRASNLESGIPARFSGSGSRTDFTLTINPVETDDVATYYCQQSNKDPLTFGAGTKLELK

Binding (ELISA OD) [6]: 0.93 OD
Binding (ELISA OD) [7]: 1.42 OD
B9: ZIL171 (antibody, V domains shown)
VH: EVQLVESGGDLVKPAGSLRLSCVASGFTFRTYVMNWVRQAPGKGLQWVASINGGGSSPTYADAVRGRFTVSRDNAQNSLFLQMNSLRAEDTAIYFCVVSMVGPFDYWGHGTLVTVSS
VL: SSVLTQPPSVSVSLGQTATISCSGKSLSYYYAQWFQQKAGQAPVLVIYKDTERPSGIPDRFSGSSSGNTHTLTISGARAEDEADYYCESAVSSDTIVFGGGTHLTVLR
